Reference: article PMC6386588 (Molecular cell, 2019)

Molecular target: H-Ras protein: His tagged: human wild type (MST) (human, UniProt P01112 1-189)
Assay: MST

Chain of H-Ras protein: His tagged: human wild type (MST) (P01112 whole entry): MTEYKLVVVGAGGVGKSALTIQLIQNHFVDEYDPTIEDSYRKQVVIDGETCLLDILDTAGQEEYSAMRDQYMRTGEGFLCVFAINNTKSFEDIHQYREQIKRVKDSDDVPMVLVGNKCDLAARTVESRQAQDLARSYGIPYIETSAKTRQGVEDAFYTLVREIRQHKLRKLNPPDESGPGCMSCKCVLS

B1: FHH:MAPKAP1^RBD (AA279-353) (domain or fragment, UniProt Q9BPZ7 279-353, looked up)
chain: LFVRINAAHGFSLIQVDNTKVTMKEILLKAVKRRKGSQKVSGPQYRLEKQSEPNVAVDLDSTLESQSAWEFCLVR
modifications: RED-tris-NTA dye on the His tag (Monolith His-Tag Labeling Kit)
B1: binds.
